Test results as given in the DeepSol protein solubility set.

Assay: soluble on expression in E. coli; label from the status in PepcDB or PDB records
With “MRVELFNPSIKKIIVKLSQLKGLWIVQLNLSKNRLSEKKFTDLAVLLSMLKAFGVTYLNLHFNNLGQKTGTELVALFKILKDSGISRLSLSANELYQKTGTELATLLTALSDSDIIQLDLSCNWLGQRQDAELIELFKAWSSTPIIDLDLTNNDLGKKSGIVLSEMFRALKVSSISHLGLRNNDLYQRTGAEFSSLLSAIKDSPVTHLDLSDNGLHLMVAAAFETLFDALKDSSVTHLNLCRNGIGHLDMFQMTAMFCSLQCTGVTHLDLGENSLELMTAEELAAIFQVFKDSRLIHLGLNDSYLNNRTTEDLHLIFNALPANIATIKLSLEELTEMSSEQRQTIQRRFPRAEQVILVNNMEGRELNPSLSLGDANVYRRLGFVGVSPLSLAGLASFFVASNNLRFAREVQKLLPDEVTERIVKNILG” the “soluble on expression in E. coli” value was “not soluble”. For “MRVFKTKLIRLQLTAEELDALTADFISYKRDGVLPDIFGRDALYDDSFTWPLIKFERVAHIHLANENNPFPPQLRQFSRTNDEAHLVYCQGAFDEQAWLLIAILKPEPHKLARDNNQMHKIGKMAEAFRMRF”, the “soluble on expression in E. coli” value was “soluble”. In the case of “MRVGIVGAGPAGVAAAVFLRRYNVHVTVFEKNRVGGLLRNAHLVENIPVLPPASGEEICKTLEKRLFESGAELIWEEVVKVENEKILTEREIHSFDYVIVASGTIPRRIPEFEVSEKVVYEFIDLPEFEKLAIYGAGDAAFDSALNALVRGKEVHLFNRGSRIRALPLLVERAKKYEKFYYHERCPILKVEEESKMVKLKTEHGVFTFDALLLSVGRLPNTSFVEPGERNFIVGDARGGFRQVSIAMGSAIETAMEILRREGTVSATLPLKEGLLNPNGEHQAG”, the “soluble on expression in E. coli” value is reported as “soluble”. For “MRVLVRNDKDDFRVKAYAGTNGVLLAMDLDASRRQGLLGFAIEKQTGSKPWLFLFNSLTFPGKAHTFPQYNATPSDQAPLQKFRWADYAVNPGATLNYRVHLAYGNPDAPQLGESLQLSITADNGQPPGQRVIFNRAVAASQAFSRKFPELDALLSANKNLPIEKWPDAPRQWLENGLLEALLGFIQRATDASWSLDIAIYEYQLQAIIDAVNAAFDRGVQVRVLYHAAPGDADTTMNQASLQHLPEANKRGRVTHAIFHDKFIVLGRLDAAGQRQPQSVLCGSTNFTANGVYRQANVLHSLDHVDIATRYLEVFEQVWATPADVGATRTWLTRNNPMQPQAPLFAGFSPRSGQGDLAEFVDIINGARRDLLFVTAFALPDSILDALLGQPHDDVLRYGLQNTASRITGFHADRTAEFAATALLNNGLEGWLKEGLKGQKGNLLVHTKAIVTDFTSEAPVIISGSHNLSVGASQSNDENFLIIRGDIDLADRYGLELLRFYEHYRFRYFARQLALKQVQPLAVDDSWSNAYYLEGDLRQLSRLRFSGRLEHHHHHH”, the “soluble on expression in E. coli” value was “not soluble”. With “MRVYVGVDTGGTFTDFVYWDGKEWRVLKIPSTPSNPAEAVLKGLEKLRRGKALDVVHGSTVATNALLERKGAKTALITNKGFEDVIEIGRQNRERLYDLYYRKPKPLVPRELRFGLNCRINAKGEVLKPINREELKEILKALKEKGVESVAVCMLHSYANPEHEKEVEEELKKNLSVFVSLSSEILPEFREYERCSTTVINAYVSPKMSKYLYYLKDRLREGDLFRVMQSNGGLISPETASKEAVRTILSGPAGGVIGALHLGKLAGFEKLITFDMGGTSTDVSLIYGTPNITTESKIDGLPVKVPMIDINTVGAGGGSIAYVDEGGALRVGPQSAGAQPGPICYGRGGKEITVTDANLFLGRLVPEHFLGGEMKLYPELLEEPFKEMAKKIGLAPTELAEGIIKVANSSMERAIRKVSVERGYNPEEFALFSFGGAGGLHAVLLAKSLNIPKVIIPRNPGLLSAVGMLFADIVKDKVTTVMLKEEEAKPETLEKLFLLMEEKVLSEMEGEGFPPEKVFVERFLDVRYKGQSYEITIPFGENFKETFEKEHERLYGYAHRGRKIEIVNLRIKATGIKEKPPLKEFKERGDKYPKDAILGEREVVFEGRLETFKVLDREKLVYGNVIDFPAIVVEYSSTTLIPPYATAEVDRYGNLIITLL” the “soluble on expression in E. coli” value was “not soluble”. For “MSADEFILQQKVHALYSNHRSWLQRWLYRKLGNACDAADLVQDTFISVITGGYADDIREPKPFLATIAGRLVAHRWRRNQLETAYLEALAALPVELMPSPEAHVLALEALLEIDRALDGLPTRVKEAFLLAHLEELSYAQIAERLNVSTSSVKQYLTRANRQCLFALSV”, the “soluble on expression in E. coli” value was “not soluble”.
